Measured values: patent US5705398A, “Methods for identifying inhibitors of LPS-mediated LBP binding” (The Scripps Research Institute, priority 1994, dated 1998)

What was measured:
[1] = biological target: T1, CD14 (Homo sapiens, UniProt P08571); test: Competition of non-fluoresceinated LPS with F-LPS in LBP/CD14 binding assay; details: similar to FIG. 3 with Re595 LPS
T1 construct: made in house; host or cells: CHO cells (clone 523, vector pEE14), secreted into culture medium
T1 sequence (P08571 20-375): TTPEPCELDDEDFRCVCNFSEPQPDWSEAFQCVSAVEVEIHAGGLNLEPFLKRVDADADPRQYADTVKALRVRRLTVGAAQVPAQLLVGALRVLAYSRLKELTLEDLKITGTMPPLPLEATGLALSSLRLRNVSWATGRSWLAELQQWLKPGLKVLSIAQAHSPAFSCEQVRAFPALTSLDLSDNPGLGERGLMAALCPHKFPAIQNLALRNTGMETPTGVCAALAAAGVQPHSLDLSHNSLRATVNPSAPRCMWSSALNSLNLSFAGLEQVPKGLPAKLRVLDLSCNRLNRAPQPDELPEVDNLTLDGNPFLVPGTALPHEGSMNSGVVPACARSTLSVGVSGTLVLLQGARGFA

[2] = biological target: T1, CD14; test: Fluorescence spectroscopy assay of F-LPS binding to soluble CD14 in presence of LBP, with peptides; details: for fluorescence intensity, +CD14: 10 ug/ml soluble CD14 added before LBP, no-peptide control 1500; for fluorescence intensity, +LBP: F-LPS + polypeptide + 10 ug/ml sCD14 + 40 ng/ml rabbit LBP, no-peptide control 6300; for inhibition of fluorescence of F-LPS / LPS binding to LBP in presence of LBP and CD14 (in words): from Table 4
Procedure: (§1) The fluorescence spectroscopy assay method also detects the intensity of fluorescence of fluoresceinated LPS in the presence of LBP and soluble CD14.
(§2) The assay to measure binding interactions between CD14 and LPS or LPS-LBP complex was conducted essentially as described in Example 1 with the following exceptions. First, the amount of rabbit LBP in the reaction admixture was 40 ng/ml. Second, soluble CD14 (sCD14) prepared as described in Example 2A was added to the reaction admixture at a concentration of 10 ug/ml prior to addition of the LBP to the reaction admixture. Peptides 6, 7 and 8, whose sequences are shown in Table 2, were each separately added to assay reaction admixtures, and the resulting FI was measured.

[3] = test system: Human CD14; test: as above; details: for fluorescence intensity, +peptide (F-LPS+peptide): F-LPS + polypeptide, before CD14 and LBP; for fluorescence intensity, +F-LPS (F-LPS alone): before peptide addition (baseline of the run)
Procedure: as §1, §2

[4] = biological target: T2, LPS-Binding Protein (LBP) (Oryctolagus cuniculus, UniProt P17454); test: Fluorescence spectroscopy assay of F-LPS binding to LBP; design: species or system rabbit; details: for fluorescence intensity, +LBP (F-LPS+peptide+LBP): 10 ng/ml F-LPS + 1 mM polypeptide + 1 ug/ml rabbit LBP, no-peptide control 2700 (Experiment A, peptides 1-4), 2300 (Experiment B, peptides 5-8); for fluorescence intensity, +peptide (F-LPS+peptide): 10 ng/ml F-LPS + 1 mM polypeptide, before LBP; for fluorescence intensity, +F-LPS (F-LPS alone): 10 ng/ml F-LPS in PBS/2 mM EDTA pH 7.4, before peptide addition (baseline of the run); for inhibition of LPS binding to LBP (in words): 1 mM polypeptide, from Table 3
T2 construct: isolated from acute phase rabbit serum; from tissue; host or cells: acute phase rabbit serum
T2 sequence (P17454 27-482): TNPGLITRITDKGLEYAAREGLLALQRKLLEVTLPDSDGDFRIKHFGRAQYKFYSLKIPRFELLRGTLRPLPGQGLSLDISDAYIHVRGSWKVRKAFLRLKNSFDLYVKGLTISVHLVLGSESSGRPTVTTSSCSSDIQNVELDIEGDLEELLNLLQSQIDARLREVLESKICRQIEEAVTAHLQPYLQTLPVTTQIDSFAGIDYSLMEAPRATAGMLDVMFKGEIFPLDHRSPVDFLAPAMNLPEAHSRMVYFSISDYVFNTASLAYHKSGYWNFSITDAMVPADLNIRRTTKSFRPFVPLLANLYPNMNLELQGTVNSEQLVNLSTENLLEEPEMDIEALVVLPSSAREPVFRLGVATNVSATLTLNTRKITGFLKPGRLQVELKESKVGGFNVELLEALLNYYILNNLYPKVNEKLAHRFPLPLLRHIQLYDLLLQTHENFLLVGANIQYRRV
Procedure: The fluorescence spectroscopy assay method detects the intensity of fluorescence of fluoresceinated LPS in the presence of LBP.
The assay reaction admixture was prepared by admixing 10 ng/ml F-LPS and 1 ug/ml rabbit LBP into a solution of phosphate buffered saline (PBS) containing 2 mM EDTA, pH 7.4. The FI was then measured with an SLM 8000 photon counting spectrophotometer (SLM, Urbana, Ill.). A continuous FI output was measured over time while first the F-LPS was added to the PBS/EDTA solution, and then the LBP was added.
To study the effect of an LBP-derived polypeptide upon the effect of LBP on the FI of F-LPS, a polypeptide was added to the assay admixture at a concentration of 1 mM polypeptide prior to the addition of LBP, which was typically added about 30 to 150 seconds after the polypeptide was added to the admixture.

[5] = biological target: T3, recombinant human soluble CD14 (Homo sapiens, UniProt P08571); test: F-LPS/CD14 fluorescence assay comparing LBP with other LPS-binding proteins; details: 20 ng/ml F-LPS; for effect on FI of F-LPS with CD14 when replacing LBP: protein 300 ng/ml, CD14 0 to 10 ug/ml
T3 construct: made in house; host or cells: CHO cells (clone 523, vector pEE14), secreted into culture medium
T3 sequence (P08571 20-375): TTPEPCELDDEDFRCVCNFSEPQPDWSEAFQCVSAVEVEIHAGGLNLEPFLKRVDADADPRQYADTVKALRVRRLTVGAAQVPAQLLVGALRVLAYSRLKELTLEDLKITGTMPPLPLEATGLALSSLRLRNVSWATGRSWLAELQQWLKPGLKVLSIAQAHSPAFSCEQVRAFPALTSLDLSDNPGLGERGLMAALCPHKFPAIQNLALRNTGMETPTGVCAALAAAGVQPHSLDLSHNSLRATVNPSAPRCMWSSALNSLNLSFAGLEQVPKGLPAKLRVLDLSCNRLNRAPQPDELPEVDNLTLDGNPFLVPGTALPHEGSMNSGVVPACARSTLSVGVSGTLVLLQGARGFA
Procedure: For the assay, LBP or the other known LPS-binding proteins were added to the admixture at a concentration of 300 nanograms/milliliter (ng/ml) and were separately admixed with varying amounts the recombinant human soluble CD14 ranging in concentration from 0 to 10 micrograms/milliliter (ug/ml).
To this admixture, 20 ng/ml of F-LPS prepared in Example 1 were admixed to form a binding admixture. Fluorescence measurements were then performed as described above to determine the effect of LBP and CD14 on the FI of F-LPS.

In the case of `CCCCCCCCCCC[C@@H](O)CC(=O)N[C@H]1[C@H](OC[C@H]2O[C@H](OP(=O)(O)O)[C@H](NC(=O)C[C@H](O)CCCCCCCCCCC)[C@@H](OC(=O)C[C@H](O)CCCCCCCCCCC)[C@@H]2O)O[C@H](CO)[C@@H](OP(=O)(O)O)[C@@H]1OC(=O)C[C@H](O)CCCCCCCCCCC` [lipid IVa], the “inhibition of FI increase by non-fluoresceinated LPS preparations (in words)” value [1] is reported as “dose dependent inhibition”.

In the case of ATLTLNTRKIT [Peptide 7], the “fluorescence intensity, +CD14” value [2] is reported as 2000 FIU, the “fluorescence intensity, +LBP” value [2] is reported as 1500 FIU and the “inhibition of fluorescence of F-LPS / LPS binding to LBP in presence of LBP and CD14 (in words)” value [2] is reported as “strongly inhibit LPS binding to LBP”. The “fluorescence intensity, +peptide (F-LPS+peptide)” value (from here on “fluorescence intensity, +peptide”) [3] was 2400 FIU, the “fluorescence intensity, +F-LPS (F-LPS alone)” value (“fluorescence intensity, +F-LPS” for short) [3] was 1200 FIU and the “fluorescence intensity, +LBP (F-LPS+peptide+LBP)” value [4] was 1300 FIU. For the same molecule, the “fluorescence intensity, +peptide” value [4] was 1600 FIU, the “fluorescence intensity, +F-LPS” value [4] was 800 FIU and the “inhibition of LPS binding to LBP (in words)” value (shortened to “inhibition of LPS binding”) [4] was “strongly inhibit LPS binding to LBP”.

For “CSSDIQNVELDIEGDLEELLNLLQSQIDARLREVLESKI [Peptide 3]”, the “fluorescence intensity, +LBP (F-LPS+peptide+LBP)” value [4] was 2100 FIU, the “fluorescence intensity, +peptide” value [4] was 1300 FIU and the “fluorescence intensity, +F-LPS” value [4] was 800 FIU. For the same molecule, the “inhibition of LPS binding” value [4] was “weakly inhibit LPS binding to LBP”.

GIDYSLMEAPRATA [Peptide 5] was tested, and the “fluorescence intensity, +LBP (F-LPS+peptide+LBP)” value [4] was 2000 FIU, the “fluorescence intensity, +peptide” value [4] was 750 FIU and the “fluorescence intensity, +F-LPS” value [4] was 750 FIU.

For KVRKAFLRLKNSFDL [Peptide 2], the “fluorescence intensity, +LBP (F-LPS+peptide+LBP)” value [4] was 800 FIU, the “fluorescence intensity, +peptide” value [4] was 800 FIU and the “fluorescence intensity, +F-LPS” value [4] was 900 FIU. For the same molecule, the “inhibition of LPS binding” value [4] was “strongly inhibit LPS binding to LBP”.

LQPYLQTLPVTTQIDS [Peptide 4] was tested, and the “fluorescence intensity, +LBP (F-LPS+peptide+LBP)” value [4] was 2300 FIU, the “fluorescence intensity, +peptide” value [4] was 900 FIU and the “fluorescence intensity, +F-LPS” value [4] was 800 FIU.

PSSAREPVFRLGVAT [Peptide 6] was tested, and the “fluorescence intensity, +CD14” value [2] was 1300 FIU, the “fluorescence intensity, +LBP” value [2] was 3500 FIU and the “inhibition of fluorescence of F-LPS / LPS binding to LBP in presence of LBP and CD14 (in words)” value [2] was “strongly inhibit LPS binding to LBP”. The “fluorescence intensity, +peptide” value [3] was 1300 FIU, the “fluorescence intensity, +F-LPS” value [3] was 1200 FIU and the “fluorescence intensity, +LBP (F-LPS+peptide+LBP)” value [4] was 1500 FIU. For the same molecule, the “fluorescence intensity, +peptide” value [4] was 800 FIU, the “fluorescence intensity, +F-LPS” value [4] was 750 FIU and the “inhibition of LPS binding” value [4] was “strongly inhibit LPS binding to LBP”.

With QTHENFLLVGANIQYRRV [Peptide 8] the “fluorescence intensity, +CD14” value [2] was 1500 FIU, the “fluorescence intensity, +LBP” value [2] was 5400 FIU and the “fluorescence intensity, +peptide” value [3] was 1400 FIU. For the same molecule, the “fluorescence intensity, +F-LPS” value [3] was 1400 FIU, the “fluorescence intensity, +LBP (F-LPS+peptide+LBP)” value [4] was 2300 FIU and the “fluorescence intensity, +peptide” value [4] was 800 FIU. For the same molecule, the “fluorescence intensity, +F-LPS” value [4] was 700 FIU.

With TNPGLITRITDKGL [Peptide 1] the “fluorescence intensity, +LBP (F-LPS+peptide+LBP)” value [4] was 2400 FIU, the “fluorescence intensity, +peptide” value [4] was 900 FIU and the “fluorescence intensity, +F-LPS” value [4] was 900 FIU.

apotransferrin was tested, and the “effect on FI of F-LPS with CD14 when replacing LBP” value [5] was “no effect was detected”.

With lipid A [synthetic lipid A] the “inhibition of FI increase by non-fluoresceinated LPS preparations (in words)” value [1] was “dose dependent inhibition”.

With lysozyme the “effect on FI of F-LPS with CD14 when replacing LBP” value [5] was “no effect was detected”.

B1: LBP: LPS binding protein isolated from acute phase rabbit serum (protein, UniProt P17454 27-482, looked up)
Lipopolysaccharide-binding …: TNPGLITRITDKGLEYAAREGLLALQRKLLEVTLPDSDGDFRIKHFGRAQYKFYSLKIPRFELLRGTLRPLPGQGLSLDISDAYIHVRGSWKVRKAFLRLKNSFDLYVKGLTISVHLVLGSESSGRPTVTTSSCSSDIQNVELDIEGDLEELLNLLQSQIDARLREVLESKICRQIEEAVTAHLQPYLQTLPVTTQIDSFAGIDYSLMEAPRATAGMLDVMFKGEIFPLDHRSPVDFLAPAMNLPEAHSRMVYFSISDYVFNTASLAYHKSGYWNFSITDAMVPADLNIRRTTKSFRPFVPLLANLYPNMNLELQGTVNSEQLVNLSTENLLEEPEMDIEALVVLPSSAREPVFRLGVATNVSATLTLNTRKITGFLKPGRLQVELKESKVGGFNVELLEALLNYYILNNLYPKVNEKLAHRFPLPLLRHIQLYDLLLQTHENFLLVGANIQYRRV
With B1 the “maximum FI” value ([5]; LBP 300 ng/ml, plateau at CD14 about 10 ug/ml) was “greater than 90,000 fluorescence units”.
